Laboratory results: article PMC10328853, “Design and preclinical evaluation of a novel apelin-based PET radiotracer targeting APJ receptor for molecular imaging of angiogenesis” (Angiogenesis, 2023)

Tests used:
in vivo [1] = conditions: male, Swiss, mouse, iv, 4.45 MBq, total radioactivity
Protocol: The quantified PET signal in organs was presented as mean ± SD percentage of the decay-corrected injected dose (%ID). Acquisition of small animal dynamic PET/CT was performed for 120 min on a NanoScan PET/CT camera (Mediso, Budapest, Hungary) under 2% isoflurane in medical air anesthesia [PET parameters: numbers of iterations: 4, coincidence: 1–3, field of view (FOV): 10 cm]. CT parameters were fixed at 35 kV voltage, 300 ms exposure at medium zoom, acquired by semi-circular method on the same FOV as PET. CT attenuation-corrected reconstruction was performed using Nucline software (Mediso, Budapest, Hungary) on the following time frames: 0–5 min, 6–10 min, 11–15 min, 16–20 min, 21–25 min, 26–30 min, 31–45 min, 46–60 min, 61–75 min, 76–90 min, 91–105 min, and 106–120 min.

[2] = tested on: Matrigel plug mouse model; assay: Longitudinal PET/CT follow-up in the Matrigel plug mouse model; assay type: in vivo; conditions: Matrigel mice, n = 7
Protocol: Matrigel plugs were established by subcutaneous dorsal injections of 300 µL Matrigel (Dutscher, Bernolsheim, France) supplemented with 10% fetal bovine serum, to 9-week-old male Swiss mice (Janvier Labs, Le Genest-Saint-Isle, France, n = 12) under 2% isoflurane anesthesia. Seven Matrigel mice underwent small animal PET follow-up, and five others were involved in the in vivo specificity study as described below. […] Small animal PET imaging acquisition lasted 20 min (numbers of iterations: 4, coincidence: 1–3) using a field of view (FOV) of 10 cm. CT parameters were fixed at 35 kV voltage, 300 ms exposure at medium zoom, acquired by semi-circular method on the same FOV as PET. CT attenuation-corrected reconstruction was performed using Nucline software (Mediso, Budapest, Hungary). Tissue uptake values were expressed as a target-to-background (Matrigel-to-muscle) or as an ischemic-to-contralateral hindlimb PET signal ratio.

[3] = mouse, in vivo, iv
Protocol: Blood was collected at 2, 5, 10, 15, 20, 30, 45, 60, 75, 90, 105, and 120 min post-injection and gamma counted with decay correction. Plasmatic half-life (t1/2) was estimated by nonlinear regression. At two hours post-injection, mice were euthanatized and the main organs (heart, liver, lungs, muscle, brain, spleen, intestines, bone, pancreas, and kidneys) were collected, washed in PBS, weighted, and gamma counted. Results were decay corrected and expressed as percentage of injected dose corrected by organ weight (%ID/g).

in vivo [4] = conditions: Pietrain, pig, 85 MBq, total radioactivity
Protocol: Attenuation-corrected images were reconstructed using ADW software v4.6 (GE Healthcare, Chicago, Illinois, USA), and PET signal quantifications were performed on CT-based manually drawn volumes of interest (VOIs) using VivoQuant software v.3.5 (InVicro, Boston, MA, USA). Results were decay corrected and expressed as mean ± sd percentage of the injected dose (%ID).

APJ in Matrigel plug = target: T1, APJ in Matrigel plug (Mus musculus, UniProt Q9WV08); assay: In vivo specificity of PET signal, Matrigel plug mice, baseline or APJ-blocking; conditions: PET 1 h p.i., n = 5
T1 construct: probably related to avascular and acellular contents of Matrigel; from tissue; host or cells: Subcutaneous Matrigel plug in male Swiss mice
T1 sequence (Q9WV08 1-377): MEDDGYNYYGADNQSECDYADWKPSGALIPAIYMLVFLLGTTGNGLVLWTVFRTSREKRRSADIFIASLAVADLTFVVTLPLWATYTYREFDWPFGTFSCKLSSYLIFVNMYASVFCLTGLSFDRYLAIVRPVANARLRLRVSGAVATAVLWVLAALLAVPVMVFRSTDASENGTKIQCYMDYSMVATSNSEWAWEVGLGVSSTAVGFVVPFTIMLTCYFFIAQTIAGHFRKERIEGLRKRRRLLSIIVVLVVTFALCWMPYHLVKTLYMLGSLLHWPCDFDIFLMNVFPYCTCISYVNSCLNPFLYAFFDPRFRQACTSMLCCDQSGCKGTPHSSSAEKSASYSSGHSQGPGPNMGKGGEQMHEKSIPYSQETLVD
Protocol: Matrigel plugs were established by subcutaneous dorsal injections of 300 µL Matrigel (Dutscher, Bernolsheim, France) supplemented with 10% fetal bovine serum, to 9-week-old male Swiss mice (Janvier Labs, Le Genest-Saint-Isle, France, n = 12) under 2% isoflurane anesthesia. Seven Matrigel mice underwent small animal PET follow-up, and five others were involved in the in vivo specificity study as described below.
(§1) Small animal PET imaging acquisition lasted 20 min (number of iterations: 4, coincidence: 1–3) using a field of view (FOV) of 10 cm. CT parameters were fixed at 35 kV voltage, 300 ms exposure at medium zoom, acquired by semi-circular method on the same FOV as PET. CT attenuation-corrected reconstruction was performed using Nucline software (Mediso, Budapest, Hungary). […] Tissue uptake values were expressed as a mean target-to-background PET signal ratio (TBRmean) with background represented by the left gastrocnemius muscle.

APJ in T84 tumors = target: T2, APJ in T84 tumors (Homo sapiens, UniProt P35414); assay: In vivo specificity of PET signal, T84 colon adenocarcinoma xenograft mice, baseline or APJ-blocking; parameters: species or system mouse; conditions: PET 1 h p.i., n = 3
T2 construct: Mice bearing ectopic colon adenocarcinoma xenograft; from tissue; host or cells: T84 xenograft tumour in Swiss nude mice
T2 sequence (P35414 1-380): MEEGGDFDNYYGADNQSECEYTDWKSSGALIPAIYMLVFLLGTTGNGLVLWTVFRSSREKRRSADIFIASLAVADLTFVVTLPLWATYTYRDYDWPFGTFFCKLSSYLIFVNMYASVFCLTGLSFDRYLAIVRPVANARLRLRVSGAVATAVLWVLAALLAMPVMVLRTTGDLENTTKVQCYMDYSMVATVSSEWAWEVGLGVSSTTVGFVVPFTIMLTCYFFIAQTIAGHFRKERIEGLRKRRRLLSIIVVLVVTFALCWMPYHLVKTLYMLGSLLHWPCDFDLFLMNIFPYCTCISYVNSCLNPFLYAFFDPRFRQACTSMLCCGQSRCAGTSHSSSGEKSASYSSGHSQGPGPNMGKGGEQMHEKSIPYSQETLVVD
Protocol: Human colon adenocarcinoma xenografts were established by subcutaneous dorsal injections of 1.10^6 T84 cells (100 µL, PBS) to 6-week-old male Swiss nude mice (Charles River, Saint-Germain-Nuelles, France, n = 3) under 2% isoflurane anesthesia.
as §1

[5] = tested on: hindlimb ischemia mouse model; assay: Longitudinal PET/CT follow-up in the hindlimb ischemia mouse model; assay type: in vivo; conditions: HLI mice, day 7, PET 1 h after i.v. injection, n = 8
From the text: Unilateral hindlimb ischemia (HLI) was induced on 9-week-old female Swiss mice (Janvier Labs, n = 8) after femoral artery excision under 2% isoflurane anesthesia as previously described. LASER Doppler perfusion imaging (Perimed, Craponne, France) was used to assess revascularization from day 0 to day 21 after surgery. Perfusion measurements were expressed as an ischemic-to-contralateral ratio of hind limb blood flow normalized to the day of surgery. […] Small animal PET imaging acquisition lasted 20 min (numbers of iterations: 4, coincidence: 1–3) using a field of view (FOV) of 10 cm. CT parameters were fixed at 35 kV voltage, 300 ms exposure at medium zoom, acquired by semi-circular method on the same FOV as PET. CT attenuation-corrected reconstruction was performed using Nucline software (Mediso, Budapest, Hungary). Tissue uptake values were expressed as a target-to-background (Matrigel-to-muscle) or as an ischemic-to-contralateral hindlimb PET signal ratio.

APJ on T84 cells = target: T3, APJ on T84 cells (Homo sapiens, UniProt P35414); assay: In vitro specificity of [68Ga]Ga-AP747 by autoradiography, with and without excess apelin-F13A; assay type: cell-based; conditions: 1 h incubation, n = 6
T3 construct: endogenous in cells; host or cells: T84 human colon adenocarcinoma cells
T3 sequence (P35414 1-380): T2 sequence (P35414 1-380)
Protocol: T84 cells were seeded at a 1.10^6 cells per well density in 24-well plates (Corning, Corning, USA) and incubated overnight with a complete medium. […] After a 1 h incubation, the medium was removed and the cells were washed 3 times with PBS (Eurobio-scientific, Les Ulis, France) and their viability assessed.

APJ = conditions: cited from earlier work
From the text: In this context, we identified the apelin/APJ system as a relevant molecular target for angiogenesis imaging because of its implication in blood vessels formation by sprouting. The APJ receptor also known as APLNR and AGTRL1 is a class A G-protein-coupled receptor. Apelin is an endogenous ligand of this receptor. The Apelin/APJ system is described as implicated in different pathologies. High levels of APJ mRNA and protein are found respectively in endothelial cells through vessel formation and on sprouting vessels of hypoxic tissues and tumor-associated endothel ...

[6] = 100X apelin-F13A (100 µg) i.v. 30 min before tracer

## CSCC[C@H](NC(=O)[C@@H]1CCCN1C(=O)CNC(=O)[C@H](CCCCNC(=O)CCC(C(=O)O)N1CCN(CC(=O)O)CCN(CC(=O)O)CC1)NC(=O)[C@H](Cc1c[nH]cn1)NC(=O)[C@H](CO)NC(=O)[C@H](CC(C)C)NC(=O)[C@H](CCCNC(=N)N)NC(=O)[C@@H]1CCCN1C(=O)[C@H](CCCNC(=N)N)NC(=O)[C@H](CCC(N)=O)NC(=O)CCC(C(=O)O)N1CCN(CC(=O)O)CCN(CC(=O)O)CC1)C(=O)N1CCC[C@H]1C(=O)N[C@@H](C)C(=O)O (some centres unmarked) [[^68Ga]Ga-AP747, metal not drawn]
In vivo [1]; PET signal in bladder
  tissue uptake dose at 2 h: 88.3 ± 5 %ID
In vivo [1]; PET signal in brain
  tissue uptake dose at 2 h: 0.02 ± 0.001 %ID
In vivo [1]; PET signal in kidneys
  tissue uptake dose at 2 h: 1.04 ± 0.2 %ID
In vivo [1]; PET signal in liver
  tissue uptake dose at 2 h: 0.35 ± 0.03 %ID
In vivo [1]; PET signal in lungs
  tissue uptake dose at 2 h: 0.06 ± 0.02 %ID
[2]; day 10, PET 1 h after i.v. injection
  target-to-background (Matrigel-to-muscle) PET signal: 3.78 ± 2.11
[2]; day 13, PET 1 h after i.v. injection
  target-to-background (Matrigel-to-muscle) PET signal: 4.86 ± 2.49
[2]; day 21, PET 1 h after i.v. injection
  target-to-background (Matrigel-to-muscle) PET signal: 5.00 ± 3.04
[3]
  Plasmatic half-life (t1/2): 13.31 min
In vivo [4]; PET signal in bladder
  tissue uptake dose at 2 h: 39.4 ± 8.54 %ID
In vivo [4]; PET signal in brain
  tissue uptake dose at 2 h: 0.037 ± 0.015 %ID
In vivo [4]; PET signal in heart
  tissue uptake dose at 2 h: 0.58 ± 0.16 %ID
In vivo [4]; PET signal in kidneys
  tissue uptake dose at 2 h: 3.98 ± 0.79 %ID
In vivo [4]; PET signal in liver
  tissue uptake dose at 2 h: 1.42 ± 0.34 %ID
In vivo [4]; PET signal in lungs
  tissue uptake dose at 2 h: 1.39 ± 0.46 %ID
APJ in Matrigel plug; [6]
  PET Matrigel-to-muscle ratio, blocking: 2.35 ± 0.62
APJ in Matrigel plug; i.v.
  PET Matrigel-to-muscle ratio, non-blocked: 7.29 ± 3.14
APJ in T84 tumors; [6]
  PET tumor-to-muscle ratio, blocking: 1.02 ± 0.31
APJ in T84 tumors; i.v.
  PET tumor-to-muscle ratio, non-blocked: 7.93 ± 2.17
[5]
  i/c (ischemic-to-contralateral hindlimb) PET signal ratio: 5.49 ± 5.97
APJ on T84 cells; 1.7 MBq/10 µL per well
  cell-to-background autoradiography signal ratio, non-blocked: 1.40 ± 0.38
APJ on T84 cells; large excess of apelin-F13A added 10 min before tracer
  cell-to-background autoradiography signal ratio, blocking: 0.50 ± 0.23

## [Ala13]-Apelin-13 [apelin-F13A]
APJ
  affinity for APJ: nanomolar affinity
